The values below are quoted from earlier work in PMC12198371 (Nature Communications, 2025).

The target of the data set is α-chymotrypsin. The settings on record: natural inhibitor, Fig. 9d.

B1: BBI G.m.: Bowman–Birk inhibitor (BBI) from soybean Glycine max (71 amino acids) (protein, UniProt P01055 40-110, looked up)
Bowman-Birk type proteinase …: DDESSKPCCDQCACTKSNPPQCRCSDMRLNSCHSACKSCICALSYPAQCFCVDITDFCYEPCKPSEDDKEN
For B1, the inhibition constant Ki is 6 nM.

What is called Ki is a dissociation constant, usually derived from enzyme kinetics or from competition with a known ligand.
